Assay [1] deals with T1, HCV ORFs (Gal4-DB fusions) (Hepatitis C virus genotype 1b, UniProt Q9WMX2).
T1 construct: expressed in transfected cells; host or cells: Saccharomyces cerevisiae MAV203 (IMAP1) / AH109 (IMAP2)
It is filed as binding, HCV genotype 1b, isolate con1. Conditions: HCV protein NS3 as bait; human protein as prey.

Assay [2] relates to HCV ORFs (Gal4-DB fusions). The format is binding, HCV genotype 1b, isolate con1. Conditions: human protein listed by gene symbol; the value names the HCV protein it interacts with.
The target of assay [3] is T2, HCV proteins (Hepatitis C virus genotype 1b, UniProt Q9WMX2).
T2 construct: expressed in transfected cells
In words: Validation by Y2H pairwise matrices.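 Note: yeast two-hybrid pairwise tests of interactions first found in Y2H screens of HCV bait proteins against human cDNA libraries.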 It is filed as binding. The note with it: validation of interaction with HCV protein NS3.
Protocol: A comprehensive interactome map between HCV and cellular proteins was generated by Y2H screens. Twenty seven constructs encoding full-length HCV mature proteins or discrete domains were cloned using a recombination-based cloning system (10) (FIG. 6). Four independent screens were performed with each HCV bait protein, probing two distinct human cDNA libraries (Supplementary Methods). […] Two validation methods were used to assess the confidence of the IMAP Y2H dataset.
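Throughout, for IMAP Y2H IMAP1 (number of IST): yeast two-hybrid screens using HCV genotype 1b proteins fused to Gal4-DB as baits against prey cDNA libraries from human spleen and foetal brain, IMAP1 via transformation and IMAP2 via mating.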
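Throughout, for IMAP Y2H IMAP2 (number of IST): yeast two-hybrid screens using HCV genotype 1b proteins fused to Gal4-DB as baits against prey cDNA libraries from human spleen and foetal brain, IMAP1 via transformation and IMAP2 via mating.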
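Throughout, for Interaction with viral protein: yeast two-hybrid screens using HCV genotype 1b proteins fused to Gal4-DB as baits against prey cDNA libraries from human spleen and foetal brain, IMAP1 via transformation and IMAP2 via mating.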

T1 sequence (Q9WMX2 1027-1657): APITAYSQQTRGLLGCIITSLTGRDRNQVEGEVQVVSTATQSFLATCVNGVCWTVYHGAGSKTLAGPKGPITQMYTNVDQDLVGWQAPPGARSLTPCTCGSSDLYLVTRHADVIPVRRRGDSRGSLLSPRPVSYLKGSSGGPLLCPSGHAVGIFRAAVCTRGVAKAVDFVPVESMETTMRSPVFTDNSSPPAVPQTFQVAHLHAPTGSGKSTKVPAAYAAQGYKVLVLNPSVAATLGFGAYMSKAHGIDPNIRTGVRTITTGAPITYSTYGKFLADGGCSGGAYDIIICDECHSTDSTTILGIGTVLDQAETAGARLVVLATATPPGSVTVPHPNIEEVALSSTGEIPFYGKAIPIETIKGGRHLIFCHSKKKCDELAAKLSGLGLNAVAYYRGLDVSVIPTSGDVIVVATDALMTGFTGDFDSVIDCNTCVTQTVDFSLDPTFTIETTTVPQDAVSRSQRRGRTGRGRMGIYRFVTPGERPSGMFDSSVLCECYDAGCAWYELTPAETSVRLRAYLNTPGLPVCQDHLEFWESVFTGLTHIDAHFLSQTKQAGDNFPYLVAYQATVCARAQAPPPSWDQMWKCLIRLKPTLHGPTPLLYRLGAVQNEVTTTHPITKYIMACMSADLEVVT
T2 sequence (Q9WMX2 1027-1657): as above

B1: KIF7 (protein, UniProt Q2M1P5 1-1343, looked up)
Kinesin-like protein KIF7: MGLEAQRLPGAEEAPVRVALRVRPLLPKELLHGHQSCLQVEPGLGRVTLGRDRHFGFHVVLAEDAGQEAVYQACVQPLLEAFFEGFNATVFAYGQTGSGKTYTMGEASVASLLEDEQGIVPRAMAEAFKLIDENDLLDCLVHVSYLEVYKEEFRDLLEVGTASRDIQLREDERGNVVLCGVKEVDVEGLDEVLSLLEMGNAARHTGATHLNHLSSRSHTVFTVTLEQRGRAPSRLPRPAPGQLLVSKFHFVDLAGSERVLKTGSTGERLKESIQINSSLLALGNVISALGDPQRRGSHIPYRDSKITRILKDSLGGNAKTVMIACVSPSSSDFDETLNTLNYASRAQNIRNRATVNWRPEAERPPEETASGARGPPRHRSETRIIHRGRRAPGPATASAAAAMRLGAECARYRACTDAAYSLLRELQAEPGLPGAAARKVRDWLCAVEGERSALSSASGPDSGIESASVEDQAAQGAGGRKEDEGAQQLLTLQNQVARLEEENRDFLAALEDAMEQYKLQSDRLREQQEEMVELRLRLELVRPGWGGPRLLNGLPPGSFVPRPHTAPLGGAHAHVLGMVPPACLPGDEVGSEQRGEQVTNGREAGAELLTEVNRLGSGSSAASEEEEEEEEPPRRTLHLRRNRISNCSQRAGARPGSLPERKGPELCLEELDAAIPGSRAVGGSKARVQARQVPPATASEWRLAQAQQKIRELAINIRMKEELIGELVRTGKAAQALNRQHSQRIRELEQEAEQVRAELSEGQRQLRELEGKELQDAGERSRLQEFRRRVAAAQSQVQVLKEKKQATERLVSLSAQSEKRLQELERNVQLMRQQQGQLQRRLREETEQKRRLEAEMSKRQHRVKELELKHEQQQKILKIKTEEIAAFQRKRRSGSNGSVVSLEQQQKIEEQKKWLDQEMEKVLQQRRALEELGEELHKREAILAKKEALMQEKTGLESKRLRSSQALNEDIVRVSSRLEHLEKELSEKSGQLRQGSAQSQQQIRGEIDSLRQEKDSLLKQRLEIDGKLRQGSLLSPEEERTLFQLDEAIEALDAAIEYKNEAITCRQRVLRASASLLSQCEMNLMAKLSYLSSSETRALLCKYFDKVVTLREEQHQQQIAFSELEMQLEEQQRLVYWLEVALERQRLEMDRQLTLQQKEHEQNMQLLLQQSRDHLGEGLADSRRQYEARIQALEKELGRYMWINQELKQKLGGVNAVGHSRGGEKRSLCSEGRQAPGNEDELHLAPELLWLSPLTEGAPRTREETRDLVHAPLPLTWKRSSLCGEEQGSPEELRQREAAEPLVGRVLPVGEAGLPWNFGPLSKPRRELRRASPGMIDVRKNPL
As for B1, the “IMAP Y2H IMAP1 (number of IST)” value in assay [1] amounted to 1. Moreover, in assay [2], the “Interaction with viral protein” value is “NS3”. The Y2H matrices result in assay [3] is given as “+”.

B2: L3MBTL3 (protein, UniProt Q96JM7 1-780, looked up)
Lethal(3)malignant brain …: MTESASSTSGQEFDVFSVMDWKDGVGTLPGSDLKFRVNEFGALEVITDENEMENVKKATATTTWMVPTAQEAPTSPPSSRPVFPPAYWTSPPGCPTVFSEKTGMPFRLKDPVKVEGLQFCENCCQYGNVDECLSGGNYCSQNCARHIKDKDQKEERDVEEDNEEEDPKCSRKKKPKLSLKADTKEDGEERDDEMENKQDVRILRGSQRARRKRRGDSAVLKQGLPPKGKKAWCWASYLEEEKAVAVPAKLFKEHQSFPYNKNGFKVGMKLEGVDPEHQSVYCVLTVAEVCGYRIKLHFDGYSDCYDFWVNADALDIHPVGWCEKTGHKLHPPKGYKEEEFNWQTYLKTCKAQAAPKSLFENQNITVIPSGFRVGMKLEAVDKKNPSFICVATVTDMVDNRFLVHFDNWDESYDYWCEASSPHIHPVGWCKEHRRTLITPPGYPNVKHFSWDKYLEETNSLPAPARAFKVKPPHGFQKKMKLEVVDKRNPMFIRVATVADTDDHRVKVHFDGWNNCYDYWIDADSPDIHPVGWCSKTGHPLQPPLSPLELMEASEHGGCSTPGCKGIGHFKRARHLGPHSAANCPYSEINLNKDRIFPDRLSGEMPPASPSFPRNKRTDANESSSSPEIRDQHADDVKEDFEERTESEMRTSHEARGAREEPTVQQAQRRSAVFLSFKSPIPCLPLRWEQQSKLLPTVAGIPASKVSKWSTDEVSEFIQSLPGCEEHGKVFKDEQIDGEAFLLMTQTDIVKIMSIKLGPALKIFNSILMFKAAEKNSHNEL
On to B2, for which, in assay [1], the “IMAP Y2H IMAP1 (number of IST)” value is on record as 4 and the “IMAP Y2H IMAP2 (number of IST)” value stood at 8. For the same molecule, the “Interaction with viral protein” value in assay [2] is on record as “NS3”. Further, the Y2H matrices result in assay [3] is on record as “+”.

(Values after patent US20110091994A1, “Methods for Screening Compounds for Treating and/or Preventing an Hepatitis C Virus Infection” (priority 2008, published 2011).)
